Test system: K4 kissing-loop RNA reporter
Assay: apparent KD of K4 kissing-loop reporter; higher = weaker reporter binding
Settings: Eterna round: R107
Method: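 RNA-MaP round R107: designed RNA switches with theophylline, tryptophan, arginine or FMN aptamers are transcribed on-chip within common flanks. They are titrated with a labelled K4 kissing-loop RNA reporter in RNA-MaP buffer (100 mM Tris pH 7.5, 80 mM KCl, 4 mM MgCl2), without ligand or with the indicated ligand. Median apparent KD per design.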

[1] = input ligand: theophylline 20 uM
[2] = input ligand: tryptophan 2.4 mM
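Note: bound reporter read as fluorescence of individual clusters on recovered sequencing chips by microscopy, with normalized cluster intensities fitted with a binding model.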

Row | Sequence | apparent KD of K4 kissing-loop reporter (input ligand: FMN 200 uM) [µM] | apparent KD of K4 kissing-loop reporter (input ligand: arginine 13.2 mM) [µM] | apparent KD of K4 kissing-loop reporter (input ligand: none) [µM] | apparent KD of K4 kissing-loop reporter [1] [µM] | apparent KD of K4 kissing-loop reporter [2] [µM]
1 | ACUGGAAUUGUACUCCAGUGAUGUUGGAGGCAGGAUAUCCAGUAAAGGAGAAGGGCCAUCGCGCUAUUUAGCCGCAGGCGGCUAA [Atrilazaed] | 0.251 | 0.13 | 0.126 | 0.136 | 0.131
2 | AGAACUGUCUUGGAUACCAGUGAUGUUGGUAUCGAUGUGUGAGUGCAAAGCGUCCCAGAGUGCCCUUGGCAGCUAAGACUGUUCA [#16 K4 Theophylline B Exclusion] | 0.277 | 0.23 | 0.269 | 0.261 | 0.259
3 | AGACGUUUGGGAAGGAGCGGAAUGUAAUACGGAACGCGUGGAGGUGCAGUGAUGUUGCAGAUCCAGGUAGGUCGCCCAAGGGACG [Esenraerve] | 0.0941 | 0.122 | 0.0991 | 0.137 | 0.0911
4 | AGACUACCACACUGUCAAUAGACAGUGAACUAGGAUAUGCUGAUAAGCAGAAGGAGUGAUGUUCCUAAUAAGGUAGUCAUAUAAU [FmnAX 15 #SwitchBubble #StaticStem #K4Early] | 0.59 | 0.481 | 0.558 | 0.637 | 0.503
5 | AGACUACCACACUGUCAAUAGACAGUGAGCUAGGAUAUGCUGAUAAGCAGAAGGAGUGAUGUUCCUAGGUAGUCAAUAAAAUAAU [FmnAX 13 G29] | 0.447 | 0.462 | 0.435 | 0.645 | 0.493
6 | AGACUACCACACUGUCAAUAGACAGUGUACUAGGAUAUGCUGAUAAGCAGAAGGAGUGAUGUUCCUAGGUAGUCAAUAAAAUAAU [FmnAX 13 U28] | 0.439 | 0.443 | 0.494 | 0.629 | 0.574
7 | AGACUACUGACAGGAUAUAACAUCCUAGUCGUAUACCGAAAGGUAUACGAUUCCCUUCUAGUGAUGUUAGAAGGGUCGGUAGUCA [Omei KL FMN B Exc B v13] | 0.151 | 0.0934 | 0.103 | 0.0989 | 0.101
8 | AGACUACUGACAGGAUAUGGCAUCCUGGUCGUAUACCGAAAGGUAUACGAUUUUCUUCUAGUGAUGUUAGAAGGGUCGGUAGUCA [Omei KL FMN B Exc B v15] | 0.128 | 0.0863 | 0.0973 | 0.0892 | 0.0927
9 | AGACUACUGAUAGGAUAUAACAUACUAGCUCGUAUACCAAAGGUAUACGAGCUCCUUCUAGUGAUGUUAGAAGGGUCGGUAGUCA [Omei KL FMN B Exc B v4] | 0.107 | 0.101 | 0.106 | 0.0996 | 0.102
10 | AGACUUCACCGAAGGAGCGACGUAGCCUAGUGAUGUUAGGCACGAGAGAAAUCUCGUAUACGUCAGGUAGGUCGCGGUGAAGUCA [Omei KL Arginine B SS C v1] | 0.196 | 0.138 | 0.161 | 0.171 | 0.161
11 | AGAGUACGAAAGUACUCCUCUACACACUGCCGAGGACCGGUACGGCCGCCACUCGAGUUGAGUGAUGUUCGACAGUGUGUAGAGA [Omei KL Tryp A SS C v2] | 0.114 | 0.0562 | 0.079 | 0.132 | 0.128
12 | AGAGUGAUGUUUUUUUGAAGUGAGUAAUGUCGAGGACCGGUACGGCCGCCACUCGAGUGAUGUUAGUGAUGUUGAUGUAGUGAUG [?lmullin] | 0.138 | 0.0613 | 0.0724 | 0.137 | 0.127
13 | AGAGUUAUGAGAGGAUAUGCGGCUAGUACUCAAAGAGUACUAGCAGCGGAGUGAUGUUCUGCGAAAGCAGAAGGUUCAUAACUCA [#08 K4 FMN B Same State] | 0.214 | 0.622 | 1.71 | 1.11 | 1.05
14 | AGAUAGGGCUGAAGGAGCGUCGGAGAAGAGAAGAAGGAAUCCAGUGAUGUUGGAUAGAUCCGACAGGUAGGUCGCAGUUUUAUGA [hbob_SS_Arginine_B_2t139] | 0.125 | 0.127 | 0.133 | 0.178 | 0.124
15 | AGAUGGAAUAGAAGGAGCGGCGCCAGUGAUGUUGGAUGCCGCGGGUGAAUCAUGUCAUAGUGCCAGGUAGGUCGCUAUUUCAGCU [Beinveve] | 0.104 | 0.0981 | 0.0966 | 0.103 | 0.0908
16 | AGAUUCGACACGGCCGCCACUCGUGGAUCUUGGUUGAGAGAUGAAAUAGAGUGAUGUUCUAAUACGAGGACCGGGUGUUGAGUCU [KL-SSTryp-B23] | 0.221 | 0.165 | 0.2 | 0.177 | 0.174
17 | AGAUUCGACACGGCCGCCACUUCCAGUGGUCGGUGUCAUGGUGCACAUGAGUGAUGUUCAUGUGGAAGGACCGGGUGUUGAGUCU [KL-XTryp-B3 #analogue] | 0.111 | 0.0914 | 0.103 | 0.108 | 0.165
18 | AGCCGAAAGGCGAGUGCUGUCACUCCGGAAGGAGCGCAGGAAACUGCAGGUAGGUCGCCGGAGUGAUGUUCCGGUGCAGCACUCA [Omei KL Arginine A Exc B v6] | 0.614 | 0.317 | 1.12 | 0.561 | 0.8
19 | AGCGGCCAGUCGGCCGCCACUCCAAGCAGUGAUGUUGCUAAGUUUCUACAAGAGUGAUGUUCUUAGAGGACCGGGACUGAUGUGA [Exclusion Tryptophan B Gf 7] | 0.192 | 0.24 | 0.211 | 0.241 | 0.157
20 | AGCUCAGAGUGACUCGAUAAGAGUCACAAACGAGGACCGGUACGGCCGCCACUCGAAAUAAAGAGAGUGAUGUUCUCGCUGAGCA [FiskerMod 9 - Jieux - Same State Tryptophan A] | 0.2 | 0.211 | 0.223 | 0.239 | 0.795
21 | AGCUGUGGCAGAAGGAGCGGCAGUUAUUCUGAUAGUACUCUGAGUGAUGUUCAGAACGACUGUCAGGUAGGUCGCUGUCACAGCU [#02 K4 Arginine B Exclusion] | 0.252 | 0.252 | 0.234 | 0.206 | 0.218
